Laboratory results published in patent publication US20200270365A1 (JIANGSU HENGRUI MEDICINE, published 2020).
Where a chain is given by its changes, count along the chain named. In names and notes the source's numbering stands.

B1: h011-3133 (antibody, V domains shown)
VH: QVQLVQSGAEVKKPGASVKVSCKASGYTFTGYEIHWVRQAPGQGLEWMGYINPSATYTKFNQKFKDRVTMTRDTSISTAYMELSRLRSDDTAVYYCARERIYSNYWFFDVWGQGTTVTVSS
VL: DIVMTQSPSSLSASVGDRVTITCKASQNVYTAVAWYQQKPGKSPKLLIYSASNRYTGVPSRFSGSGSGTDFTLTISSLQPEDFATYFCQQYSSYPYTFGGGTKVEIK
B2: h011-3147 (antibody, V domains shown)
VH: B1 VH with E33T, Y50E, N52I, A55S
VL: B1 VL
B3: h011-3174 (antibody, V domains shown)
VH: B1 VH with E33T, A55S, Y102F
VL: B1 VL with S50Q
B4: h011-3181 (antibody, V domains shown)
VH: B1 VH with E33T, A55S
VL: B1 VL with Y91L, Y96D
B5: h011-3187 (antibody, V domains shown)
VH: B1 VH with E33T, A55S
VL: B1 VL with Y91L, Y94S, Y96E
B6: h011-3190 (antibody, V domains shown)
VH: B1 VH with E33T, Y50E, A55S
VL: B1 VL
B7: h011-3191 (antibody, V domains shown)
VH: B1 VH with E33T, N52V, A55S
VL: B1 VL
B8: h011-3192 (antibody, V domains shown)
VH: B1 VH with E33T, A55S
VL: B1 VL with A32E
B9: h011-3193 (antibody, V domains shown)
VH: B1 VH with E33T, A55S
VL: B1 VL with A34D
B10: h011-3194 (antibody, V domains shown)
VH: B1 VH with E33T, A55S
VL: B1 VL with Y91L
B11: h011-3195 (antibody, V domains shown)
VH: B1 VH with E33T, A55S, Y102F
VL: B1 VL
B12: h011-3133-WT: h011-3133-IgG1 format (antibody)
heavy: not shown
light: DIVMTQSPSSLSASVGDRVTITCKASQNVYTAVAWYQQKPGKSPKLLIYSASNRYTGVPSRFSGSGSGTDFTLTISSLQPEDFATYFCQQYSSYPYTFGGGTKVEIKRTVAAPSVFIFPPSDEQLKSGTASVVCLLNNFYPREAKVQWKVDNALQSGNSQESVTEQDSKDSTYSLSSTLTLSKADYEKHKVYACEVTHQGLSSPVTKSFNRGEC
notes: Human IgG1 heavy chain constant region, human kappa light chain
B13: h011-3133-YTE: h011-3133-IgG1-YTE format (antibody)
heavy: QVQLVQSGAEVKKPGASVKVSCKASGYTFTGYEIHWVRQAPGQGLEWMGYINPSATYTKFNQKFKDRVTMTRDTSISTAYMELSRLRSDDTAVYYCARERIYSNYWFFDVWGQGTTVTVSSASTKGPSVFPLAPSSKSTSGGTAALGCLVKDYFPEPVTVSWNSGALTSGVHTFPAVLQSSGLYSLSSVVTVPSSSLGTQTYICNVNHKPSNTKVDKKVEPKSCDKTHTCPPCPAPELLGGPSVFLFPPKPKDTLYITREPEVTCVVVDVSHEDPEVKFNWYVDGVEVHNAKTKPREEQYNSTYRVVSVLTVLHQDWLNGKEYKCKVSNKALPAPIEKTISKAKGQPREPQVYTLPPSRDELTKNQVSLTCLVKGFYPSDIAVEWESNGQPENNYKTTPPVLDSDGSFFLYSKLTVDKSRWQQGNVFSCSVMHEALHNHYTQKSLSLSPGK
light: B12 light
notes: Mutant human IgG1 (YTE: M252Y, S254T, T256E, EU numbering), human kappa light chain

Key:
[1] = target: T1, PCSK9 protein inserted with biotin receiving peptide BP15 and His-tag: PCSK9-BP15-His6 (human, UniProt Q8NBP7 153-692; A8T644 31-152, biotin on the BP15 biotin receiving peptide (labeled during the expression)); test: ELISA, biotin PCSK9 on streptavidin plate
T1 construct: also called WT PCSK9; PCSK9 WT
Method: The binding ability of anti-PCSK9 antibodies of the present invention to PCSK9 protein (WT PCSK9, SEQ ID NO: 5) was detected by measuring the amounts of antibodies binding to PCSK9 immobilized on the ELISA plate.
(§1) Streptavidin (sigma, CAT #S4762) was diluted to 2 μg/ml with PBS and was added into a 96-well ELISA plate, at 4° C. for overnight. The plate was washed and then was blocked with Tris buffer (including 0.9 mM CaCl₂, 0.05% Tween 20 and 5% skim milk) at 37° C. for 2 hours. Then the plate was washed again and 100 μl/well of biotin-labeled PCSK9 (produced in-house, diluted with Tris buffer containing 0.9 mM CaCl₂, 0.05% Tween 20 and 1% skim milk) was added and incubated at 37° C. for 1 hour. After the wash step various concentrations of diluted PCSK9 antibody samples was added to the plate and incubated at 37° C. for 1 hour. […] Then the plate was washed and tetramethyl brenzidine solution was added for development. Finally, the stop buffer was added and the OD450 value was measured on the Microplate reader, and then EC50 was calculated.

[2] = target: T2, PCSK9 D374Y mutant protein inserted with biotin receiving peptide BP15 and His-tag: PCSK9-D374Y-BP15-His6 (human, UniProt Q8NBP7 153-692; A8T644 31-152, biotin on the BP15 biotin receiving peptide); test: ELISA, biotin PCSK9-Y on streptavidin plate
T2 construct: also called PCSK9-Y; mutant PCSK9
Method: The binding ability of anti-PCSK9 antibodies of the present invention to PCSK9-Y protein (mutant PCSK9, SEQ ID NO: 6) was detected by measuring the amounts of antibodies binding to PCSK9-Y immobilized on the ELISA plate.
as §1, with “hours. The” for “hours. Then the”, “washed” for “washed again”, “biotin-labeled PCSK9-Y” for “biotin-labeled PCSK9”, “wash step,” for “wash step”, “samples were” for “samples was”

[3] = target: T1, PCSK9 protein inserted with biotin …; test: competition ELISA, LDLR-FC coated, biotin PCSK9 + antibody
Method: The blocking ability of PCSK9 antibodies according to the present invention for the binding of LDLR-FC (produced in-house, with sequence of SEQ ID NO: 8) and PCSK9 (SEQ ID NO: 5) was tested by measuring the amount of PCSK9 binding to LDLR in the presence of the antibodies.
(§2) LDLR-FC was diluted to 5 μg/ml with phosphate buffer and was added into the 96-well ELISA plate, kept at 4° C. overnight. The plate was washed and then blocked with Tris buffer (including 0.9 mM CaCl₂, 0.05% Tween 20 and 5% skim milk) at 37° C. for 2 hours. Then the plate was washed and 100 μl/well of mixture of biotin-labeled PCSK9 (diluted to 2 μg/ml with Tris buffer containing 0.9 mM CaCl₂, 0.05% Tween 20 and 1% skim milk) and antibody samples (diluted with Tris buffer containing 0.9 mM CaCl₂, 0.05% Tween 20 and 1% skim milk) was added and incubated at 37° C. for 1 hour. Then the plate was washed again and horseradish peroxidase-streptavidin (sigma, CAT #S2438) was added and incubated at 37° C. for 1 hour. Then the plate was washed and tetramethyl brenzidine solution was added for development. Finally, the stop buffer was added and OD450 value was measured on the Microplate reader, then IC50 value was calculated.

[4] = target: T2, PCSK9 D374Y mutant protein inserted …; test: competition ELISA, LDLR-FC coated, biotin PCSK9-Y + antibody
Method: The blocking ability of PCSK9 antibodies according to the present invention for the binding of LDLR-FC and PCSK9-Y (mutant PCSK9, SEQ ID NO: 6) was tested by measuring the amount of PCSK9-Y binding to LDLR in the presence of the antibodies.
as §2, with “LDLR-FC (produced in-house, with sequence of SEQ ID NO: 8)” for “LDLR-FC”, “to 2” for “to 5”, “plate,” for “plate, kept”, “biotin-labeled mutant” for “biotin-labeled”, “to 1” for “to 2”

[5] = target: T3, PCSK9 with His-tag: PCSK9-His6 (human, UniProt Q8NBP7 153-692; A8T644 31-152); test: SPR Biacore, antibody captured by human Fab capture molecule on CM5, PCSK9-His6 mobile phase
T3 construct: also called huPCSK9; human PCSK9 antigen
Source text: According to the method described in the human Fab capture kit (Cat. #28-9583-25, GE), the human Fab capture molecule was covalently linked to the CM5 biochip (Cat. #BR-1000-12, GE) so that the PCSK9 antibodies of the present invention were affinity captured. Then, human PCSK9 antigen (PCSK9 with His tag: PCSK9-His6, SEQ ID NO: 1) flowed through the surface of the biochip, and the reaction signal was detected in real time using a Biacore instrument to obtain the association and dissociation curves. Finally, the affinity values were obtained by fitting and are shown at table 16 below. After each cycle of dissociation was finished, the biochip was washed and regenerated with regeneration solution in the human Fab capture kit (GE).

Binder	EC50 [1] [ng/mL]	EC50 [2] [ng/mL]	IC50 [3] [µg/mL]	IC50 [4] [µg/mL]	Kd [5] [nM]
B1	4.35	4.92	0.495	0.175	–
B2	4.83	6.68	0.567	0.173	–
B3	5.29	11.2	1.67	0.23	–
B4	2.21	6.78	0.857	0.233	–
B5	4.5	7.04	0.666	0.156	–
B6	5	4.78	0.837	0.222	–
B7	6.31	6.6	0.74	0.226	–
B8	6.64	127	0.698	2.36	–
B9	4.7	22.1	0.621	0.871	–
B10	4.69	16.9	0.628	0.579	–
B11	6.79	21.8	2.25	0.689	–
B12	–	–	–	–	< 0.0526
B13	–	–	–	–	< 0.0518
